Measured values taken from US20220195063A1 (BYONDIS B V, published 2022).

T1: cynomolgus SIRPα (cySIRPα), protein antigen (cynomolgus monkey, UniProt A0A2K5VYQ9 31-369)
T1 construct: Coated on the plate in ELISA
T1 sequence: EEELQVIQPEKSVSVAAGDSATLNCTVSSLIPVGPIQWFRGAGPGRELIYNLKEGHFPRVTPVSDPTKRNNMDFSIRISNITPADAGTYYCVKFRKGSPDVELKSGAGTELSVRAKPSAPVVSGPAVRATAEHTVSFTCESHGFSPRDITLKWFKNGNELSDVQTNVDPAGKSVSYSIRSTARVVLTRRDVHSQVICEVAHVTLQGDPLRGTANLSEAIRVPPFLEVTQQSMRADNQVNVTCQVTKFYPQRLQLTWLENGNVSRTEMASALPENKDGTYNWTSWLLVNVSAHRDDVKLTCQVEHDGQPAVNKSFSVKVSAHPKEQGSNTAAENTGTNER

T2: cynomolgus SIRPα expressed on cells (cynomolgus monkey, UniProt A0A2K5VYQ9 31-507)
T2 construct: whole, on cells; also called ExpiCHO-S (cySIRPα)
T2 sequence: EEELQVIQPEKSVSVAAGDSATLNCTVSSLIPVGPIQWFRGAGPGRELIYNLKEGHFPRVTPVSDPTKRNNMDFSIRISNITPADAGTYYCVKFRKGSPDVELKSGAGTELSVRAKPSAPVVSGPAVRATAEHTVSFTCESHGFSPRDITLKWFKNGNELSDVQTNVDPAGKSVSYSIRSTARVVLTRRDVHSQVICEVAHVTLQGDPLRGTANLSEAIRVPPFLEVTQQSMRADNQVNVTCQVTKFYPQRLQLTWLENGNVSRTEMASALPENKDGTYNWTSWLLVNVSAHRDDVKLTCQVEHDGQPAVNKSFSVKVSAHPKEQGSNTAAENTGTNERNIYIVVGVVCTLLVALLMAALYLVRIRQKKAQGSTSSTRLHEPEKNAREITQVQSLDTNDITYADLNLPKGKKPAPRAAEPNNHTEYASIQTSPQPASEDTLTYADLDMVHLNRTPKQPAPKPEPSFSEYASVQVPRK


Key:
[1] = molecular target: T3, human SIRPγ (huSIRPγ) (human, UniProt Q9P1W8 29-360, limits assumed, biotinylated in the SPR assay); test: SPR, biotinylated antigen captured, 25 C
T3 construct: Coated on the plate in ELISA, biotinylated and captured in SPR
T3 sequence (Q9P1W8 29-360 limits assumed): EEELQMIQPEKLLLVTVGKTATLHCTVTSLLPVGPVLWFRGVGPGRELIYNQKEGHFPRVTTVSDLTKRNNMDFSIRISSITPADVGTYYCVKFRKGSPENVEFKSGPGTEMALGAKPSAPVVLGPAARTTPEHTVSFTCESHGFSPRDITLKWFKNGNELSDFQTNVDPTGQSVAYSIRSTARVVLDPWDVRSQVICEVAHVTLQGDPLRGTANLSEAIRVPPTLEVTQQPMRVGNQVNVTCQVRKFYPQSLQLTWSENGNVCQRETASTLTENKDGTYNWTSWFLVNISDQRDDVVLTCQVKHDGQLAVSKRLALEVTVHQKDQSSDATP
Procedure: (§1) Surface Plasmon Resonance (SPR) assay: Affinity analysis was performed by single cycle kinetics analysis on a Surface Plasmon Resonance apparatus (Biacore T200 system, GE Life Sciences) at 25° C. Biotinylated SIRP antigens were captured on the surface of a chip suitable for biotinylated molecules (Sensor Chip CAP, GE Life Sciences) by injecting 5 μg/ml of the SIRP antigen in running buffer (10 mM HEPES buffer at pH 7.4 with 150 mM NaCl, 3 mM EDTA and 0.005% v/v polyoxyethylene (20) sorbitan monolaurate (Surfactant P20) for 60 sec at 10 μL/min after injection of a streptavidin conjugate (20× diluted biotin CAPture reagent, GE Life Sciences) for 60 sec at 10 μl/min. Baseline stabilization was set at 1 min after which five increasing concentrations of an anti-SIRP antibody in running buffer (10 mM HEPES buffer at pH 7.4 with 150 mM NaCl, 3 mM EDTA and 0.005% v/v polyoxyethylene (20) sorbitan monolaurate) were injected. For each step an association time of 150 sec was used, followed by a dissociation time of 1200 sec at the highest concentration only, all at a flow rate of 30 μL/min. Regeneration was performed with 6 M guanidine-HCl, 0.25 M NaOH solution (60 sec with flow rate of 30 μL/min). Double blank subtraction was performed on the observed sensorgrams using a non anti-SIRP (blank) immobilized reference flow channel and running buffer injection. Sensorgrams were fitted with a 1:1 Langmuir model for all tested anti-SIRP antibodies. The kinetic parameters (kₐ, kd and KD) were calculated using the Biacore T200 evaluation software (v3.1).

[2] = molecular target: T4, human SIRPα1 (huSIRPα1), protein antigen (human, UniProt P78324 31-370, limits assumed, biotinylated in the SPR assay); test: SPR, biotinylated antigen captured, 25 C
T4 construct: Coated on the plate in ELISA, biotinylated and captured in SPR; also called v2
T4 sequence (P78324 other isoform, or with tags, fused parts or gaps limits assumed): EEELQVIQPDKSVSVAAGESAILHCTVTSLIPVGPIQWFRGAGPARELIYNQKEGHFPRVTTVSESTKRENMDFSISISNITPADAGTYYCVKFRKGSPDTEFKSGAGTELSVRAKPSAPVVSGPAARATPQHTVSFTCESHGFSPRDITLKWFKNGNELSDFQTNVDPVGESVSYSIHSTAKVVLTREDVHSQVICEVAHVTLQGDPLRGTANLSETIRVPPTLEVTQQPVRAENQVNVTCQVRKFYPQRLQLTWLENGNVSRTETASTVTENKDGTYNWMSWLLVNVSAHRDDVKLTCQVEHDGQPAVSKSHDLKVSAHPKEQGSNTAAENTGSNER
Procedure: as §1

[3] = molecular target: human SIRPαBIT expressed on cells (human) (UniProt P78324); test: flow cytometry, U937 cells
Chain of human SIRPαBIT expressed on cells (human) (P78324 31-504): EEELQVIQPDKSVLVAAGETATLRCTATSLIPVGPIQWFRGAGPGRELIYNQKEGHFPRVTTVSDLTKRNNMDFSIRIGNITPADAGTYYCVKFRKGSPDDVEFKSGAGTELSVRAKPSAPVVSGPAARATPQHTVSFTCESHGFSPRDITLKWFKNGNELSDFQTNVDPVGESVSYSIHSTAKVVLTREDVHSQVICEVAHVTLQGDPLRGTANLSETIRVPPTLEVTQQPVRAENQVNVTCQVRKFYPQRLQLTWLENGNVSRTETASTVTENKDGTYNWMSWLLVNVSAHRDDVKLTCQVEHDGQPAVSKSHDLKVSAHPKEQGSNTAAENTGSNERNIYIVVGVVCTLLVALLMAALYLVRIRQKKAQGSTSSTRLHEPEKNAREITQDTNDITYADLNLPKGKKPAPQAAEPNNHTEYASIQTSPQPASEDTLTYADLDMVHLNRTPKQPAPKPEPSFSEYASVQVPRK

[4] = molecular target: human SIRPαBIT (huSIRPαBIT), protein antigen (human) (UniProt P78324); test: SPR, biotinylated antigen captured, 25 C
Chain of human SIRPαBIT (huSIRPαBIT), protein antigen (human) (P78324 31-370): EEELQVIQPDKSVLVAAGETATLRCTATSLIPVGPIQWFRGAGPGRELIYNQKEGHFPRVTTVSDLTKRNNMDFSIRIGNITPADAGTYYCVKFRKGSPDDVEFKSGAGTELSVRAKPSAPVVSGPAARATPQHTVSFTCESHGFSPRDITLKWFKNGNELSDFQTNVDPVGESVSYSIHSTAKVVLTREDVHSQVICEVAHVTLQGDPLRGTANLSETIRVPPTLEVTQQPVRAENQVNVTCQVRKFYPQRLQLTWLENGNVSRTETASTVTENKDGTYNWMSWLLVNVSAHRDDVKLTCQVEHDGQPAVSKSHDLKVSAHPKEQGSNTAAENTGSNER

[5] = molecular target: T3, human SIRPγ (huSIRPγ); test: ELISA, antigen coated
Procedure: (§2) ELISA assay: Solutions of huSIRPα₁, huSIRPαBIT, huSIRPβ₁ᵥ₁, huSIRPβ₁ᵥ₂, huSIRPγ and cySIRPα in phosphate buffered saline (PBS) were each added to a multiple well black polystyrene plate for ELISA and allowed to adhere for 1 h at RT. Unbound protein was removed with three washing steps using standard washing buffer. Subsequently, blocking buffer was added to the wells. After 1 h incubation at RT, the wells were washed three times with standard washing buffer. The antibodies in buffer at various concentrations were added to the wells and incubated at RT for 1 h. Unbound antibodies were removed with three washing steps using standard washing buffer. Goat anti human IgG (Fab′)₂:horse radish peroxidase (HRP) in buffer was added to the wells and incubated at RT for 1 h. 3,3′,5,5′-Tetramethylbenzidine (TMB) was added and after sufficient colour development HCl was added. Absorbance was read at 450 nm/620 nm.

[6] = molecular target: T5, human SIRPβ1v2 (huSIRPβ1v2) (human, UniProt Q5TFQ8 30-371); test: ELISA, antigen coated
T5 construct: Coated on the plate in ELISA; Only the Ensembl protein number is printed; also called huSIRPß1v2
T5 sequence (Q5TFQ8 30-371 limits assumed): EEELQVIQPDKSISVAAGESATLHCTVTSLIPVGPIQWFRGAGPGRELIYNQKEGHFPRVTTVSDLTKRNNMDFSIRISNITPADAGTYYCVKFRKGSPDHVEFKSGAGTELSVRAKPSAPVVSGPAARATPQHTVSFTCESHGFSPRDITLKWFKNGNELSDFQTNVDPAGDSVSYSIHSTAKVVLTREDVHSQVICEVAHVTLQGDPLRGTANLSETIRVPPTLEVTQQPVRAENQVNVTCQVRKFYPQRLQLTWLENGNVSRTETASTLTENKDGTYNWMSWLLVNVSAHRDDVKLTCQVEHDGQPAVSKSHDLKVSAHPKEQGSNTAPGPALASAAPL
Procedure: as §2

[7] = molecular target: T4, human SIRPα1 (huSIRPα1), protein antigen; test: ELISA, antigen coated
Procedure: as §2

[8] = molecular target: T1, cynomolgus SIRPα (cySIRPα), protein …; test: ELISA, antigen coated
Procedure: as §2

[9] = molecular target: T2, cynomolgus SIRPα expressed on cells; test: flow cytometry, ExpiCHO-S cells
From the text: (§3) Flow Cytometry: U937 cells endogenously expressing human SIRPαBIT antigen and cells derived from a non-engineered subclone that has been screened and isolated from CHO-S Chinese hamster ovary cells (ExpiCHO-S) cells expressing human SIRPα₁, SIRPαBIT or cySIRPα antigen (100,000 cells/well in a 96-well plate) were washed three times with ice-cold FACS buffer (1×PBS (LONZA) containing 0.2% v/w BSA (Sigma-Aldrich, St. Louis, Mo.) and 0.02% v/w NaN₃ (Sigma-Aldrich), followed by the addition of a concentration range of each primary mAb (50 μL/well) diluted in ice-cold FACS buffer. After an incubation time of 30 min at 4° C., the cells were washed three times with ice-cold FACS buffer and 50 μL/well secondary mAb (AffiniPure F(ab′)₂ fragment Goat-anti-human IgG-APC, 1:6,000 dilution, Jackson Immuno Research) was added. After 30 min at 4° C., cells were washed twice and resuspended in 150 μL FACS buffer. Fluorescence intensities were determined by flow cytometry (BD FACSVerse, Franklin Lakes, N.J.) and indicated as the median fluorescence intensity (MFI-Median) for U937 cells and ExpiCHO-S cells. Curves were fitted by nonlinear regression using the sigmoidal dose-response equation with variable slope (four parameters) in GraphPad Prism (version 7.02 for Windows, GraphPad, San Diego, Calif.). EC₅₀ values were calculated as the concentration in μg/mL that gives a response half way between bottom and top of the curve, when using a 4-parameter logistic fit.

[10] = molecular target: T6, human SIRPα1 expressed on cells (human, UniProt P78324 31-504); test: flow cytometry, ExpiCHO-S cells
T6 construct: whole, on cells; also called ExpiCHO-S (huSIRPα1); CHO cells expressing huSIRPα1
T6 sequence (P78324 other isoform, or with tags, fused parts or gaps limits assumed): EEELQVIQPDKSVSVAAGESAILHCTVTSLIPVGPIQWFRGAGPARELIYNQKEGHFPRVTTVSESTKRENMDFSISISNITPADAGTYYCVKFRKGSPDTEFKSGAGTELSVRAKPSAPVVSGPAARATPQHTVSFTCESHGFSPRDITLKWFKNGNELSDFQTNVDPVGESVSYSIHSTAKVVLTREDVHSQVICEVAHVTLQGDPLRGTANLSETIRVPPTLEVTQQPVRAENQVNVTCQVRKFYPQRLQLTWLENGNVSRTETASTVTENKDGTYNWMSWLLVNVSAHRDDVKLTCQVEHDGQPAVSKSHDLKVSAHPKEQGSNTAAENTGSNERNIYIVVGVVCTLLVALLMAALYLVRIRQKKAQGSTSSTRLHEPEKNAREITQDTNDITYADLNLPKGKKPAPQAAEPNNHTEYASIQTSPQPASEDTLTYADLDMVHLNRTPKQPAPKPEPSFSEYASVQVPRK
From the text: as §3

[11] = molecular target: human SIRPαBIT expressed on cells (human) (UniProt P78324); test: flow cytometry, ExpiCHO-S cells
[12] = molecular target: human SIRPαBIT (huSIRPαBIT), protein antigen (human) (UniProt P78324); test: ELISA, antigen coated
[13] = molecular target: human SIRPβ1v1 (huSIRPβ1v1) (human) (UniProt O00241); test: ELISA, antigen coated
Chain of human SIRPβ1v1 (huSIRPβ1v1) (human) (O00241 30-371): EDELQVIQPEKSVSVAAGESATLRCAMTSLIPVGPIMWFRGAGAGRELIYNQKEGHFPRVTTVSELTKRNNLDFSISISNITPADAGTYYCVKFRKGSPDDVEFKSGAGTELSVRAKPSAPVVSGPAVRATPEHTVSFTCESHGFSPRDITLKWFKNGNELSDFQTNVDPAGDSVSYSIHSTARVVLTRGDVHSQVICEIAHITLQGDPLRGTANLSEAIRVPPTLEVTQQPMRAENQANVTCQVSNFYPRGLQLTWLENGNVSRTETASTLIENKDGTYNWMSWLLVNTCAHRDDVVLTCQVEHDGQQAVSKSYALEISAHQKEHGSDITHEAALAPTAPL

| Binder | Kd [1] | Kd [2] | EC50 [3] | Kd [4] | EC50 [5] | EC50 [6] | EC50 [7] | EC50 [8] | EC50 [9] | EC50 [10] | EC50 [11] | EC50 [12] | EC50 [13] | binding result [1] |
| --- | --- | --- | --- | --- | --- | --- | --- | --- | --- | --- | --- | --- | --- | --- |
| KWAR23 huIgG1LALA (antibody, V domains shown) VH: EVQLQQSGAELVKPGASVKLSCTASGFNIKDYYIHWVQQRTEQGLEWIGRIDPEDGETKYAPKFQDKATITADTSSNTAYLHLSSLTSEDTAVYYCARWGAYWGQGTLVTVSS VL: QIVLTQSPAIMSASPGEKVTLTCSASSSVSSSYLYWYQQKPGSSPKLWIYSTSNLASGVPARFSGSGSGTSYSLTISSMEAEDAASYFCHQWSSYPRTFGAGTKLELK | < 0.01 nM | 0.011 nM | 0.09 µg/mL | < 0.01 nM | – | – | – | – | – | – | – | – | – | – |
| anti-SIRPα antibody 8 (antibody, human IgG1, kappa, L234A L235A, V domains shown, Rabbit variable regions on human IgG1 LALA / kappa) VH: QSLEESGGRLVTPGTPLTLTCTASGVDLSNYAMGWVRQAPGKGLEWIGIIYAGGSTSYATWAKGRFTISKTSTTMDLKMTSPTTEDTATYFCARHRSDGYDYFHLWGPGTLVTVSL VL: AIDMTQTPASVSEPVGGTVTIKCQASQSISSWLAWYQQKPGQRPKLLIYDASKLASGVPSRFSGSGSGTEFTLTISGVQSDDAAAYYCQQGYAVSYVENIFGGGTEVVVKR | – | – | 0.12 µg/mL | – | > 100 µg/mL | 0.019 µg/mL | 0.019 µg/mL | 0.026 µg/mL | 0.15 µg/mL | 0.22 µg/mL | 0.18 µg/mL | 0.02 µg/mL | > 100 µg/mL | – |
| anti-SIRPα antibody 2 (antibody, human IgG1, kappa, L234A L235A, V domains shown, Rabbit variable regions on human IgG1 LALA / kappa) VH: QSVEESGGRLVTPGTPLTLTCTVSGFSLSNYAMHWVRQAPGKGLEWIGIIYTGGATSYATWAKGQFTISKTSTTVDLKITSPTTEDTATYFCARGDRDGYAYFNIWGPGTLVTVSL VL: QIVMTQTPFSVSAVVGGTVTIKCQASHNIGSWLAWYQQKPGQRPKLLIYDASTLASGVSSRFKGSGSGTEFTLTISGVESADAATYYCQQGYGISYVHNVFGGGTEVVVKR | – | – | 0.14 µg/mL | – | > 100 µg/mL | 0.028 µg/mL | 0.033 µg/mL | 0.038 µg/mL | 0.16 µg/mL | 0.19 µg/mL | 0.27 µg/mL | 0.027 µg/mL | > 100 µg/mL | – |
| 12C4huIgG1LALA (antibody, V domains shown, HAVT20 leader left out; also called 12C4LALA; huIgG112C4LALA) VH: EVKLEESGGGLMQPGGSMKLSCVASGFTFSNYWMNWVRQSPEKGLEWVAEIRLKSNNYATHYAESVKGRFTISRDDSKSSVYLQMNNLRAEDTGIYYCIRDYDYDAYFDYWGQGTTLTVSS VL: DIVLTQSPASLAVSLGQRATISCRASKSVSTSGYNYMYWYQQKPGQPPKLLIYLASNLESGVPARFSGSGSGTDFTLNIHPVEEEDAATYYCQHSGELPYTFGGGTKLEIKR | 0.016 nM | 0.087 nM | 0.19 µg/mL | 0.015 nM | 0.006 µg/mL | 0.006 µg/mL | 0.007 µg/mL | 0.005 µg/mL | – | – | – | 0.005 µg/mL | 0.008 µg/mL | – |
| anti-SIRPα antibody 4 (antibody, human IgG1, kappa, L234A L235A, V domains shown, Chimeric: rabbit variable regions on human IgG1 LALA / kappa; also called chimeric antibody 4) VH: QSVEESGGRLGTPGTPLTLTCTVSGFSLSSYVMGWFRQAPGKGLEYIGIISSSGSPYYASWVNGRFTISKTSTTMDLKMNSPTTEDTATYFCARVGPLGVDYFNIWGPGTLVTVSL VL: DIVMTQTPSSVEAAVGGTVTIKCQAGQSINSYLAWYQQKPGQRPKLLIYYASTLESGVPSRFKGSGSGTDYTLTISDLESADAATYYCQSWHYISRSYAFGGGTEVVVKR | – | 0.026 nM | 0.12 µg/mL | < 0.01 nM | > 100 µg/mL | 0.092 µg/mL | 0.053 µg/mL | 0.099 µg/mL | 0.18 µg/mL | 0.41 µg/mL | 0.23 µg/mL | 0.025 µg/mL | > 100 µg/mL | – |
| anti-SIRPα antibody 5 (antibody, human IgG1, kappa, L234A L235A, V domains shown, Rabbit variable regions on human IgG1 LALA / kappa) VH: QSVEESGGRLVTPGTPLTLTCTVSGFSLSSYVMGWFRQAAGKGLEYIGYINADGSPYYATWVNGRFTISKTPTTMDLKINSPTTEDTATYFCARVGPLGVDYFNIWGPGTLVTVSL VL: DIVMTQTPASVEAAVGGTVTIKCQASQSINRYLTWYQQKPGQRPKLLIYYASTLESGVPSRFEGSGSGTDYTLTISDLESADAATYYCQSYYYISRTYAFGGGTEVVVKR | – | – | 0.16 µg/mL | – | > 100 µg/mL | 0.11 µg/mL | 0.031 µg/mL | 0.123 µg/mL | 0.26 µg/mL | 0.27 µg/mL | 0.22 µg/mL | 0.021 µg/mL | 3.52 µg/mL | – |
| anti-SIRPα antibody 12 humanized (antibody, human IgG1, kappa, L234A L235A, V domains shown, Humanized, human IgG1 LALA / kappa) VH: VQLVESGGRLVQPGTPLTLSCTVSGFSLSSYVMGWFRQAPGKGLEYIGIISSSGSPYYASWVNGRFTISKTSTTMDLKMNSLRSEDTATYFCARVGPLGVDYFNIWGPGTLVTVSS VL: DIVMTQTPSSVEAAVGGTVTIKCQAGQSINSYLAWYQQKPGQRPKLLIYYASTLESGVPSRFKGSGSGTDYTLTISDLESADAATYYCQSWHYISRSYAFGGGTEVVVKR | – | 0.059 nM | 0.2 µg/mL | < 0.01 nM | – | – | – | – | 0.17 µg/mL | 0.1 µg/mL | 0.46 µg/mL | – | – | no binding |
